Consider 2 proteins from paper PMC5481561, “The crystal structure of mammalian inositol 1,3,4,5,6-pentakisphosphate 2-kinase reveals a new zinc-binding site and key features for protein function” (The Journal of Biological Chemistry, 2017).

Changes are numbered by the printed parent chain. Names and notes keep the numbering of the source.

Substrate in data set [1]: O=P(O)(O)O[C@@H]1[C@@H](OP(=O)(O)O)[C@H](OP(=O)(O)O)[C@H](O)[C@H](OP(=O)(O)O)[C@H]1OP(=O)(O)O
Kind of data set: HPLC of IP5-dependent ATP to ADP conversion. To be noted: 50 μM ATP, 1 mM MgCl2, 20 mM Hepes, pH 7.3, 0.2–5 μM IP5. In kind it is biochemical, Mus musculus.

Substrate in data set [2]: O=P(O)(O)O[C@@H]1[C@@H](OP(=O)(O)O)[C@H](OP(=O)(O)O)[C@H](O)[C@H](OP(=O)(O)O)[C@H]1OP(=O)(O)O
Kind of data set: HPLC of IP5-dependent ATP to ADP conversion. Format: biochemical, Mus musculus. To be noted: 50 μM ATP, 1 mM MgCl2, 20 mM Hepes, pH 7.3, 0.2–5 μM IP5. From the text: HPLC of IP5-dependent ATP to ADP conversion on LSLt-ΔC-mIP5 2-K | showing very similar kinetic parameters (Fig. 3A)
The source holds these as a separate data set.

B1: LSLt-ΔC-mIP5 2-K (Mus musculus) (protein)
chain: MEEGKMDENEWSYHGEGNKSLVVAHAQRCVVLRFLKFPPNKKKTSEEILQHLQNIVDFGKNVMKDFLGENYVHCGEVVQLPLEFVKQLCLKIQCERPESRCDKDLDTFSGYAMCLPNLTRLQTFHFAEHRPILCVEIKPKCGFIPFSNDVTHEMKHKVCRYCMHQHLKVATGKWKKISKYCPLDLYSGNKQRMHFALRSLLQETQNNLRIFKNGELIYGCGDARSPVADLKELAHHLKPFFFPSNGLASGPHCTKAVIRELVHVITRVLLSSSEKARAGALRLGLQGPRVCEASPFSRSLHNQGKNTSEHSGLPKGCLLYKTLQVQMLDQLDIEGLYPLYKRVEQYLEEFPEERKTLQIDGPYDEVFYQKLLDLSTEDDGTVAFALTKVQQYRVAMTAKDCSIMIALSPCLQGTSSDQRPVIPSSRSRLAFSVSVLDLDLKPYESIPHQYKLDSKIVNYYSKTVHAKD
notes: lacks the 21 C-terminal residues (stop codon at 469); LSLt (Laetiporus sulphureus lectin) tag kept; E. coli BL21 Star (DE3)
With B1, the Km (usually the substrate concentration at which the rate is half of its maximum) in data set [1] was 0.29 µM.

B2: LSLt-ΔC-mIP5 2-K (Mus musculus; K173A) (protein)
chain: B1 chain with K173A
notes: as for B1
As to B2, the Km in data set [2] is 0.2729 ± 0.0895 µM.
